From patent US6277558
Ends that are not written are not given here.

Target: GP sera of Examples 8 to 11 (anti sera from two GP patients)
Experiment: inhibition ELISA: peptide preincubated with GP antibodies for 12 hours, then plates coated with α3 NC1 bovine monomer

percent inhibition at saturation: 60%
B1: α3 carboxy terminal peptide (12 Mer synthetic peptide of human α3(IV) NC1) (peptide)
peptide: ISRCQVCMKKRH
modifications: also: the two cysteines blocked, group not given here
